Results published in article PMC11853025, “Determining Ligand Binding and Specificity Within the β2-Integrin Family with a Novel Assay Platform” (Biomolecules, 2025).

Experiments:
Conditions in all cases: both partners purified
C3b = target: T1, C3b (UniProt P01024 23-667; P01024 749-1663); test: SPR; C3b deposited on a CM5 chip (amine-coupled seed, then convertase-mediated deposition to about 5000 RU), iC3b and C3dg made from it on the chip; αI domains injected as dilution series, 120 s; Biacore T200, 25 °C; HBST (10 mM HEPES, 150 mM NaCl, 0.005% Tween-20, pH 7.4) with 1 mM MgCl2; Langmuir 1:1 fit, KD calculated
T1 construct: A seed of about 100 RU C3b was amine-coupled; further C3b was deposited via its thioester moiety to about 5000 RU; also called C3b fragment; C3-derived opsonin; source: bought: Complement Technology (C3b, C3); deposited on the SPR chip from C3 by the FB/FD convertase

C3dg = target: T2, C3dg (UniProt P01024 955-1303); test: as above
T2 construct: Held on the chip through the thioester-mediated deposit of its parent C3b; also called C3dg fragment; source: made on the SPR chip by co-injecting CR1 and factor I

[1] = target: T3, ICAM-1 (recombinant, Sino Biological 10346-H03H) (UniProt P05362 28-480); test: SPR; ICAM-1, ICAM-2, ICAM-3 amine-coupled to a CM5 chip; αI domains injected; 25 °C; HBST with 1 mM MgCl2
T3 construct: ICAM-1, bought recombinant protein; also called intercellular adhesion molecule 1; source: bought: Sino Biological

[2] = target: T4, ICAM-2 (recombinant, Sino Biological 10332-H03H) (UniProt P13598 25-223); test: as above
T4 construct: ICAM-2, bought recombinant protein; also called intercellular adhesion molecule 2; source: bought: Sino Biological
T4 sequence (looked up): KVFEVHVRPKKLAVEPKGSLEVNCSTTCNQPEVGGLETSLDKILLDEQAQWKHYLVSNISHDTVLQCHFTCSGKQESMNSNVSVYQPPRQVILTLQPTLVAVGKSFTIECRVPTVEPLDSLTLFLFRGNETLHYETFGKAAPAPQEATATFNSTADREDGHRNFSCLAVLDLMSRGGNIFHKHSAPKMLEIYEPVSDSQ

T3 sequence (P05362 28-480): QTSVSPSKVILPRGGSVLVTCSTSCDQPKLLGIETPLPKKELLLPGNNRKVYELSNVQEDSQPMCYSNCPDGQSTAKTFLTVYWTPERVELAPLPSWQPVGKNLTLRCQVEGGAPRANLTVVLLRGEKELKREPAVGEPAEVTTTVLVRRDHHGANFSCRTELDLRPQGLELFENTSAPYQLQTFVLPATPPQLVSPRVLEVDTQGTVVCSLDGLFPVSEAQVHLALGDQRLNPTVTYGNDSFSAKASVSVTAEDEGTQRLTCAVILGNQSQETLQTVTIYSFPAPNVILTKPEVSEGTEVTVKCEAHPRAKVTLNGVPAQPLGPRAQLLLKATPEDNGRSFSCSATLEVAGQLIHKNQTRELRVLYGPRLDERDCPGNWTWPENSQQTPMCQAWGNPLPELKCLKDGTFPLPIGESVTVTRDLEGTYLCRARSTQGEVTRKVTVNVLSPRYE

B1: CR4 αXI domain, wild type (WT) (domain or fragment, UniProt P20702 148-336, looked up)
chain: QEQDIVFLIDGSGSISSRNFATMMNFVRAVISQFQRPSTQFSLMQFSNKFQTHFTFEEFRRSSNPLSLLASVHQLQGFTYTATAIQNVVHRLFHASYGARRDAAKILIVITDGKKEGDSLDYKDVIPMADAAGIIRYAIGVGLAFQNRNSWKELNDIASKPSQEHIFKVEDFDALKDIQNQLKEKIFAI
notes: integrin alpha-X (CD11c) αI domain, Q148-I336; also called αXI WT; WT αXI
C3b
  Kd: 55.5 µM
C3dg
  Kd: 30.4 µM

B2: CR4 αXI domain, high-affinity (HA) variant p.I333G (domain or fragment, UniProt P20702 148-336, looked up)
chain: QEQDIVFLIDGSGSISSRNFATMMNFVRAVISQFQRPSTQFSLMQFSNKFQTHFTFEEFRRSSNPLSLLASVHQLQGFTYTATAIQNVVHRLFHASYGARRDAAKILIVITDGKKEGDSLDYKDVIPMADAAGIIRYAIGVGLAFQNRNSWKELNDIASKPSQEHIFKVEDFDALKDIQNQLKEKGFAI
notes: integrin alpha-X (CD11c) αI domain, Q148-I336; Addgene numbers tied to αLI and αXI by the order of the sentence; also called αXI HA; HA αXI
C3b
  Kd: 2.2 µM
C3dg
  Kd: 3.8 µM

B3: CD11d αDI domain, high-affinity (HA) variant p.I332G (domain or fragment, UniProt Q13349 145-334, looked up)
chain: PHQEMDIVFLIDGSGSIDQNDFNQMKGFVQAVMGQFEGTDTLFALMQYSNLLKIHFTFTQFRTSPSQQSLVDPIVQLKGLTFTATGILTVVTQLFHHKNGARKSAKKILIVITDGQKYKDPLEYSDVIPQAEKAGIIRYAIGVGHAFQGPTARQELNTISSAPPQDHVFKVDNFAALGSIQKQLQEKGYA
notes: integrin alpha-D (CD11d) αI domain, P145-A334; plasmid bought from ATG:Biosynthetics; also called αDI HA; HA αDI
[1]
  binding result: binds

B4: CR3 αMI domain, high-affinity (HA) variant p.I332G (domain or fragment)
chain: QEDSDIAFLIDGSGSIIPHDFRRMKEFVSTVMEQLKKSKTLFSLMQYSEEFRIHFTFKEFQNNPNPRSLVKPITQLLGRTHTATGIRKVVRELFNITNGARKNAFKILVVITDGEKFGDPLGYEDVIPEADREGVIRYVIGVGDAFRSEKSRQELNTIASKPPRDHVFQVNNFEALKTIQNQLREKGFA
notes: integrin alpha-M (CD11b) αI domain, Q146-A334; beads captured by the His-tag; also called αMI HA; HA αMI
C3b
  Kd: 11.6 µM
C3dg
  Kd: 1.4 µM
[2]
  binding result: binds
